Laboratory results from US20250066499A1 (SUNSHINE GUOJIAN PHARMACEUTICAL SHANGHAI, published 2025).
Numbering of substitutions follows the chain as printed. Names and notes keep the numbering of the source. Like-named read-outs stand apart in the source and are kept apart here.

T1: human CD73-His protein (human, UniProt P21589 27-549)
T1 construct: Expressed in HEK-293F with a signal peptide that is not specified; In the ELISAs it was biotinylated with EZ-Link NHS-Biotin (CD73-biotin) and captured on streptavidin; in SPR and the enzyme assay it was used as CD73-His; also called CD73-his antigen; CD73-biotin
T1 sequence: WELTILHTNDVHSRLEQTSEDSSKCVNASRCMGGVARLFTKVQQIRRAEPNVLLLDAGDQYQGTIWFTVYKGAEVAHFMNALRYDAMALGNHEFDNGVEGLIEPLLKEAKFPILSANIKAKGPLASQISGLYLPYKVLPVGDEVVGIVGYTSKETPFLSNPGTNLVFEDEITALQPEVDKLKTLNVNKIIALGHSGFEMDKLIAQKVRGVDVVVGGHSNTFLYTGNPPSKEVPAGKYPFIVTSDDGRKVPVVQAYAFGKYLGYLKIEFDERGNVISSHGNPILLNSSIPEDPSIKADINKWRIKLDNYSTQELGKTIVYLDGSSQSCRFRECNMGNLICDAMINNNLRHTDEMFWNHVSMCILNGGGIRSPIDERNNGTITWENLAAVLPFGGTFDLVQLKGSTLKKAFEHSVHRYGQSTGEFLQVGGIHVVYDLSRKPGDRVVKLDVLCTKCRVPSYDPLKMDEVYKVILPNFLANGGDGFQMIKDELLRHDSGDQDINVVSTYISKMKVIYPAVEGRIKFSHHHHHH

T2: CD73 protein on the surface of tumor cells (human, UniProt P21589 27-549)
T2 sequence (looked up): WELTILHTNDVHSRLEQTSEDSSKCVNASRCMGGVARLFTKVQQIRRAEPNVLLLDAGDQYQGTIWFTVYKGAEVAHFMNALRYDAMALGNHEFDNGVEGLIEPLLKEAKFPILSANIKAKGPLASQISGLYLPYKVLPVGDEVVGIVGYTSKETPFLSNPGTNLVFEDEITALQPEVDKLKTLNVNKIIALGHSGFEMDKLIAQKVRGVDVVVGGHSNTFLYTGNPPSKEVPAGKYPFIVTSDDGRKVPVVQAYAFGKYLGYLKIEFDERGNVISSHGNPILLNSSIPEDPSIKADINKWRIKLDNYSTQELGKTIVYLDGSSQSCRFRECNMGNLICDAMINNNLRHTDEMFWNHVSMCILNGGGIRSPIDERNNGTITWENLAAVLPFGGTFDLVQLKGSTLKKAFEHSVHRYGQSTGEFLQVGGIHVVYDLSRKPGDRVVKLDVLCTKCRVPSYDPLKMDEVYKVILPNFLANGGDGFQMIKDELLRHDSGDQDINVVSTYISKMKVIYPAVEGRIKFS

B1: 56B10 (antibody, V domains shown)
VH: QVQLQQSGPELVKPGASVRISCKTSGYTFTRYYIYWVKQRPGQGLEWIGWIYPGNFNTKYNEKFKGKATLTADTSSSTAYMQLSSLTSEDSAVYFCARDVYDYAGFAYWGQGTLVTVSA
VL: DIVMTQSHRFLSTSVGDRVSITCKASQGVATAVAWYQQKPGQSPKLLIYWASTRHTGVPDRFTGSGSGTDFTLTISNVQSEDLADYFCQQYSSYPWTFGGGTKLEIK
notes: Murine hybridoma antibody; also called murine-derived antibody 56B10
B2: 56B10-ch (antibody, human IgG4 S228P, kappa, V domains shown)
VH: B1 VH
VL: DIVMTQSHRFLSTSVGDRVSITCKASQGVATAVAWYQQKPGQSPKLLIYWASTRHTGVPDRFTGSGSGTDFTLTISNVQSEDLADYFCQQYSSYPWTFGGGTKLEIKR
notes: Chimeric: murine variable regions spliced with human IgG4 (S228P) and human kappa constant regions; also called chimeric antibody 56B10-ch
B3: 48A11 (antibody, V domains shown)
VH: QVQLQQPGAELVKPGASVKLSCKASGYTFTSYWMHWVKQRPGQGLEWIGEINPSIGRTNYNEKFKSKATLTVDKSSSTAFMQLSSLTSEDSAVYYCARRVYGTMDYWGQGTSVTVSS
VL: DIKMTQSPSSMYASLGERVTITCKASQDINSYLSWFQQKPGKSPKTLIYRANIWVDGVPSRFSGSGSGQDYSLTISSLEYEDMGIYYCLQYDELYTFGGGTKLEIK
notes: Murine hybridoma antibody; also called murine-derived antibody 48A11
B4: 48A11-ch (antibody, human IgG4 S228P, kappa, V domains shown)
VH: B3 VH
VL: DIKMTQSPSSMYASLGERVTITCKASQDINSYLSWFQQKPGKSPKTLIYRANIWVDGVPSRFSGSGSGQDYSLTISSLEYEDMGIYYCLQYDELYTFGGGTKLEIKR
notes: Chimeric: murine variable regions spliced with human IgG4 (S228P) and human kappa constant regions; also called chimeric antibody 48A11-ch
B5: 48A11-HuV23 (antibody, human IgG4, V domains shown)
VH: QVQLVQSGAEVKKPGASVKVSCKASGYTFTSYWMHWVRQAPGQGLEWIGEINPSIGRTNYNEKFKSRATLTVDKSTSTAYMELSSLRSEDTAVYYCARRVYGTMDYWGQGTLVTVSS
VL: DIQMTQSPSSLSASVGDRVTITCKASQDINSYLSWFQQKPGKSPKLLIYRANIWVDGVPSRFSGSGSGQDYTFTISSLQPEDIATYYCLQYDELYTFGQGTKVEIK
notes: Humanized
B6: 48A11-HuV22 (antibody, human IgG4, V domains shown)
VH: B5 VH
VL: B5 VL with L46T
notes: Humanized
B7: 56B10-HuV21 (antibody, human IgG4, V domains shown)
VH: QVQLVQSGAEVKKPGASVKVSCKTSGYTFTRYYIYWVRQAPGQGLEWIGWIYPGNFNTKYNEKFKGRATLTADTSASTAYMELSSLRSEDTAVYYCARDVYDYAGFAYWGQGTLVTVSS
VL: DIQLTQSPSFLSASVGDRVTITCKASQGVATAVAWYQQKPGQSPKLLIYWASTRHTGVPDRFSGSGSGTEFTLTISSLQPEDFATYYCQQYSSYPWTFGQGTKVEIK
notes: Humanized
B8: 56B10-HuV32 (antibody, human IgG4, V domains shown)
VH: B7 VH with V5Q, T24A, A40R, R87T
VL: B7 VL with Q42K, S43A, D60S
notes: Humanized
B9: 56B10-HuV33 (antibody, human IgG4, V domains shown)
VH: B7 VH with V5Q, T24A, A40R, R87T
VL: B7 VL with L4M, Q42K, D60S, Y87F
notes: Humanized
B10: 56B10-HuV23 (antibody, human IgG4, V domains shown)
VH: B7 VH
VL: B7 VL with L4M, Q42K, D60S, Y87F
notes: Humanized

Assays:
human CD73-His protein [1] = molecular target: T1, human CD73-His protein; test: ELISA, biotinylated CD73-His on streptavidin plate
Method: (§1) The ELISA plates were coated with SA protein diluted to 1.5 μg/mL in coating buffer (50 mM carbonate coating buffer, pH 9.6) and incubated overnight at 4° C. The supernatant was discarded, and the plates were washed three times with PBST. Then, 5% skimmed milk powder prepared with PBS was added for blocking and the plates were incubated for 2 h at 37° C. After washing the plates once with PBST, CD73-biotin protein (prepared by biotinylating CD73-His protein according to the EZ-Link NHS-Biotin Reagent instructions) was diluted to 0.5 μg/mL and added at 100 μL/well for incubation at room temperature for 1 h. The plates were washed three times with PBST, and the prepared murine-derived monoclonal antibodies against human CD73 were serially diluted with 1% BSA buffer prepared with PBST and added to the ELISA plates at 100 μl/well. The plates were incubated at 37° C. for 1 h. After washing the plates three times with PBST, HRP-labeled goat anti-mouse IgG secondary antibody was added and the plates were incubated for 30 min at 37° C. After washing the plates three times with PBST, the residual droplets were patted dry on absorbent paper as much as possible. Then, 100 μl of TMB color developing solution was added to each well, and the plates were incubated in the dark at room temperature for 5 min for color development. Subsequently, 50 μl of 2M H₂SO₄ stop solution was added to each well to terminate the substrate reaction. The OD values were read at 450 nm using a multimode microplate reader to analyze the binding ability of the tested antibodies to the target antigen human CD73-His.

[2] = molecular target: T2, CD73 protein on the surface of tumor …; test: cell-based or functional assay
human CD73-His protein [3] = molecular target: T1, human CD73-His protein; test: ELISA, biotinylated CD73-His on streptavidin plate; remark: listed apart in the source
Method: as §1
The binding affinity of various humanized antibodies to human CD73-his protein was measured with reference to Example 3.

human CD73-His protein [4] = molecular target: T1, human CD73-His protein; test: cell-based or functional assay

| Binder | EC50 (human CD73-His protein [1]) | IC50 (ng/mL), inhibition of CD73 enzyme activity on H1975 cells (AMP/ATP, Cell Titer-Glo) [2] | EC50 (human CD73-His protein [3]) | IC50 (nM), inhibition of enzyme activity of soluble CD73-His (AMP/ATP, Cell Titer-Glo) (human CD73-His protein [4]) |
| --- | --- | --- | --- | --- |
| B1 | 0.0269 µg/mL | 20.7 ng/mL | – | – |
| B2 | 0.09 nM | – | 0.07 nM | – |
| B3 | 0.0197 µg/mL | 17 ng/mL | – | – |
| B4 | 0.067 nM | – | 0.058 nM | – |
| B5 | – | – | 0.081 nM | – |
| B6 | – | – | 0.093 nM | 9.02 nM |
| B7 | – | – | 0.11 nM | – |
| B8 | – | – | 0.105 nM | – |
| B9 | – | – | 0.112 nM | 4.13 nM |
| B10 | – | – | 0.107 nM | – |
